Assays:
[1] = molecular target: MelBSt (Salmonella enterica serovar Typhimurium) (UniProt P30878); settings: cited from earlier work
[2] = molecular target: MelBSt/Nb733 complex, formed beforehand (MelBSt 50 μM with Nb733 75 μM, molar ratio 1:1.5) (Salmonella enterica serovar Typhimurium | Lama glama) (UniProt P30878); assay: ITC; EIIA^Glc (450 μM) in the syringe, MelBSt (50 μM), free or complexed with Nb733 (75 μM), in the sample cell; 20 mM Tris-HCl pH 7.5, 100 mM NaCl, 0.01% DDM, 10% glycerol; 25 °C; one-site independent-binding model
Chain of MelBSt/Nb733 complex, formed beforehand (MelBSt 50 μM with Nb733 75 μM, molar ratio 1:1.5) (Salmonella enterica serovar Typhimurium | Lama glama) (P30878 whole entry, looked up, one chain of several): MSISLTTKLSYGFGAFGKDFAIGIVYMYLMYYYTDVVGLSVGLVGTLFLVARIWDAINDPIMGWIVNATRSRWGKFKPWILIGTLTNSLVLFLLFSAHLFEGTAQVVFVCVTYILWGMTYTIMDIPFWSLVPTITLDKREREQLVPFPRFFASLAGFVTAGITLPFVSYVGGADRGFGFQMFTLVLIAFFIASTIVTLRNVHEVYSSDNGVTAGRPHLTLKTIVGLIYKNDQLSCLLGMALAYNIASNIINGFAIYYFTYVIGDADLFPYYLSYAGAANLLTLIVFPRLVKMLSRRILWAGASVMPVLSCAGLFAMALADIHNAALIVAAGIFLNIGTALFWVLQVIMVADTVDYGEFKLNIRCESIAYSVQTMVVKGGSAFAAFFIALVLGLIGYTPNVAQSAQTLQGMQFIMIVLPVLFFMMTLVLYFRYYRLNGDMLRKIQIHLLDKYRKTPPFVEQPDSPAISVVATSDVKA

[3] = molecular target: T1, Salmonella enterica serovar Typhimurium melibiose permease (MelBSt), wild type (Salmonella enterica serovar Typhimurium, UniProt P30878 6-476); assay: as above; settings: both partners purified
T1 construct: melibiose permease MelB of Salmonella enterica serovar Typhimurium, wild type; Membrane protein in detergent (0.01% DDM) in the ITC; also called WT MelBSt; source: E. coli DW2, plasmid pK95 ΔAH/MelBSt/CHis10
T1 sequence (P30878 6-476): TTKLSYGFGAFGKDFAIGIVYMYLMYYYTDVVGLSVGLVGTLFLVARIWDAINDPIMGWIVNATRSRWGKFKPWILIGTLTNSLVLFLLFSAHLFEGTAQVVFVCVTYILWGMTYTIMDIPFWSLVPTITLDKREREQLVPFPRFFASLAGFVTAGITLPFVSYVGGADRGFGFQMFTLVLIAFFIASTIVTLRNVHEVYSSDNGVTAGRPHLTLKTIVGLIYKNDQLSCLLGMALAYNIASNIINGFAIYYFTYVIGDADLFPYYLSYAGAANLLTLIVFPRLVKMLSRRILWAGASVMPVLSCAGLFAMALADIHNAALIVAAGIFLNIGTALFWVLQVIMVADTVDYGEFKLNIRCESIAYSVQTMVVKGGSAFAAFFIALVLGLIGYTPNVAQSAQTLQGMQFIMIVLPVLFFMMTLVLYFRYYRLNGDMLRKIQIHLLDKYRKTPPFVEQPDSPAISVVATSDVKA

Chain of MelBSt (Salmonella enterica serovar Typhimurium) (P30878 whole entry): as the sequence (P30878 whole entry, looked up, one chain of several) above

Question: For EIIAGlc (from UniProt P69783), which Kd [1] is on record?
Answer: 0.003 mM

Question: With “EIIA^Glc of the glucose-specific phosphoenolpyruvate/sugar phosphotransferase system, unphosphorylated (from UniProt P69783 1-169) (natural protein)” as the molecule, how does the Kd [2] read?
Answer: 8.12 mM

Question: What about the dH [2] of the same molecule?
Answer: -6.75 kcal/mol

Question: What about the stoichiometry N [2] of the same molecule?
Answer: 0.76

B1: EIIA^Glc of the glucose-specific phosphoenolpyruvate/sugar phosphotransferase system, unphosphorylated (natural protein, UniProt P69783 1-169, looked up)
chain: MGLFDKLKSLVSDDKKDTGTIEIIAPLSGEIVNIEDVPDVVFAEKIVGDGIAIKPTGNKMVAPVDGTIGKIFETNHAFSIESDSGVELFVHFGIDTVELKGEGFKRIAEEGQRVKVGDTVIEFDLPLLEEKAKSTLTPVVISNMDEIKELIKLSGSVTVGETPVIRIKK
notes: regulatory enzyme EIIA^Glc of the glucose-specific phosphotransferase system, unphosphorylated; source: E. coli T7 Express, overexpressed, as described (24)
Question: Which results are given for B1?
Answer: Kd [3]: 3.33 mM; dH [3]: -9.54 kcal/mol; stoichiometry N [3]: 0.81

— paper PMC10374971, “In vivo and in vitro characterizations of melibiose permease (MelB) conformation-dependent nanobodies reveal sugar-binding mechanisms” (The Journal of Biological Chemistry, 2023)
